Measured values reported in publication PMC7145654.
Like-named read-outs stand apart in the source and are kept apart here.

T1: RadD (Escherichia coli, UniProt P33919 1-586)
T1 sequence: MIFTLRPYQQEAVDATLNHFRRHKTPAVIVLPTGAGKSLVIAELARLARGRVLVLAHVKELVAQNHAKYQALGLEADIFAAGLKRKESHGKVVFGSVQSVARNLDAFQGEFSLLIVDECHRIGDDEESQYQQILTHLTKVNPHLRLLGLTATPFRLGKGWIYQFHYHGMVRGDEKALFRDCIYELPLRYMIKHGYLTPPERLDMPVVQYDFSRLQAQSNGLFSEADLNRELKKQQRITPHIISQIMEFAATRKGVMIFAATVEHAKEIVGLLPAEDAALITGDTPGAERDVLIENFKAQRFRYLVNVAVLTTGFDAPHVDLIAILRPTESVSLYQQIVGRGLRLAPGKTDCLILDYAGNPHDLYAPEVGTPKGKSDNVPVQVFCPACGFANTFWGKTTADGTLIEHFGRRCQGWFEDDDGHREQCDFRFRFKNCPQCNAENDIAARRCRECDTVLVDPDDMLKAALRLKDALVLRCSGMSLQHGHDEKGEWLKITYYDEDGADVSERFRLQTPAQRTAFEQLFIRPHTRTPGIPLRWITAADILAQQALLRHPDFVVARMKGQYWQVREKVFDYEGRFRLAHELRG


How the values were obtained:
RadD [1] = biological target: T1, RadD; test: fluorescence anisotropy
RadD [2] = biological target: T1, RadD; test: fluorescence anisotropy; remark: listed apart in the source
Uup [3] = biological target: T2, Uup (Escherichia coli, UniProt P43672 1-635); test: EMSA
Uup [4] = biological target: T2, Uup; test: EMSA; remark: listed apart in the source

T2 sequence (P43672 whole entry): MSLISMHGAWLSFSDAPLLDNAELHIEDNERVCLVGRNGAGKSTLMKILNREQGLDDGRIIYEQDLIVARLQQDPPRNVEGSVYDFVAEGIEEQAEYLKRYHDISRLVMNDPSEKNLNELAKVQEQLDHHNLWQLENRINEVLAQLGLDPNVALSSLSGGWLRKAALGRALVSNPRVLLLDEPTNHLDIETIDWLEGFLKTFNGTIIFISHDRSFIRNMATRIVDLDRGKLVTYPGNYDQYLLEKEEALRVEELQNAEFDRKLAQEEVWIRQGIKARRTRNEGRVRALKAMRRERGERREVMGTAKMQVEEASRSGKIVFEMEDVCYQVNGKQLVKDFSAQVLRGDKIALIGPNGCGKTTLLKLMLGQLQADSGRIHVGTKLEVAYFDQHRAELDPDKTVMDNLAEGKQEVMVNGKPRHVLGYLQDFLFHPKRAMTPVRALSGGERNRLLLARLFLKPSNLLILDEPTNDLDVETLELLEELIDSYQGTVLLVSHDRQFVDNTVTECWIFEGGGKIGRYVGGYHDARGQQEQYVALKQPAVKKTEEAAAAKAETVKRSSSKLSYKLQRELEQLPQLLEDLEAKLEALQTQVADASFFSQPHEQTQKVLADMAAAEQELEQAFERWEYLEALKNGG

Binder	binding result (RadD [1])	binding result (RadD [2])	binding result (Uup [3])	binding result (Uup [4])
three-way junction (OH1/OH4/3W) (structured_DNA) DNA 1: CCCGTGATCACCAATGCAGATTGACGAACCTTTGCCCACGT DNA 2: GGCAGTAGGCCTAGCATGACAATCTGCATTGGTGATCACGG DNA 3: GACGTGGGCAAAGGTTCGTCGTCATGCTAGGCCTACTGC	binds			
Holliday junction (OH1-OH4) (structured_DNA) DNA 1: CCCGTGATCACCAATGCAGATTGACGAACCTTTGCCCACGT DNA 2: GACGTGGGCAAAGGTTCGTCAATGGACTGACAGCTGCATGG DNA 3: GCCATCCAGCTGTCAGTCCATTGTCATGCTAGGCCTACTGC DNA 4: GGCAGTAGGCCTAGCATGACAATCTGCATTGGTGATCACGG		no binding	binds	
linear duplex (ZJRds1/ZJRds2) (dsDNA) DNA 1: GCAATTAAGCTCTAAGCCATCCGCAAAAATGACCTCTTATCAAAAGGA DNA 2: TCCTTTTGATAAGAGGTCATTTTTGCGGATGGCTAAGAGCTTAATTGC		no binding		no binding
